Data on nine molecules can be found in article PMC6128652, “Structure of the Cladosporium fulvum Avr4 effector in complex with (GlcNAc)6 reveals the ligand-binding mechanism and uncouples its intrinsic function from recognition by the Cf-4 resistance protein” (PLoS Pathogens, 2018).

Residue numbers refer to the chain shown, from its start. Entries after “also recorded” stand apart in the source; their conditions may differ.

Sequences and labels used below:
B1: D102A (protein)
chain: KAPKTQPYNPCKPQEVIDTKCMGPKDCLYPNPDSCTTYIQCVPLDEVGNAKPVVKPCPKGLQWNDNVGKKWCAYPNLSTCPVKTPQ
modifications: left off: 6x His (two), N-terminal, state not stated
B2: M51A (protein)
chain: B1 chain with M22A, A73D
modifications: left off: 6x His (two), N-terminal, state not stated
B3: D94A (protein)
chain: B1 chain with D65A, A73D
modifications: left off: 6x His (two), N-terminal, state not stated
B4: Y103F (protein)
chain: B1 chain with A73D, Y74F
modifications: left off: 6x His (two), N-terminal, state not stated
B5: P87A (protein)
chain: B1 chain with P58A, A73D
modifications: left off: 6x His (two), N-terminal, state not stated
B6: Y67F (protein)
chain: B1 chain with Y38F, A73D
modifications: left off: 6x His (two), N-terminal, state not stated
B7: P53A (protein)
chain: B1 chain with P24A, A73D
modifications: left off: 6x His (two), N-terminal, state not stated
B8: N93A (protein)
chain: B1 chain with N64A, A73D
modifications: left off: 6x His (two), N-terminal, state not stated
B9: N95A (protein)
chain: B1 chain with N66A, A73D
modifications: left off: 6x His (two), N-terminal, state not stated

In the first data set the test system is germlings of Trichoderma viride. Put plainly: In vitro protection assay of T. viride germlings against chitinases. The data set is classed as cell-based. Conditions: 5 μM protein with chitinases and β-1,3-glucanases, 6–8 h. Here is the method: The ability of the WT-CfAvr4 and of ChBD mutants to protect against chitinases was evaluated in in vitro protection assays conducted as described before. Briefly, spores of T. viride (3∙10^3) were pre-germinated overnight at room temperature in 100 μl of half-strength PDB medium in 96 well plates. The following day, 5 μM of WT-CfAvr4 or ChBD mutants were mixed with 7.5 units of Zymolyase (Zymo Research cat. no. E1004) and 0.2 units of bacterial chitinases (Sigma-Aldrich cat. no. C6137) and the mixture was added to the microtitre plate wells containing the pre-germinated spores in a final volume of 150 μl. Plates were incubated at 25°C for 6–8 h before evaluating under the microscope fungal growth and the ability of the proteins to provide protection against chitinases. Zymolase has β-1,3 glucanase and β-1,3-glucan laminaripentaohydrolase activity and is added to the mixture in order to remove the surface glucans from the fungal cell wall and thus expose the underlying chitin layer.
Consider B1, for which the “protection of fungal hyphae against chitinases, fungal growth” value is reported as “essentially failed to protect the fungal hyphae against chitinases; also recorded: fail to protect the fungal hyphae”.

The subject of a further data set is Cf-4 immune receptor. Briefly: Pure protein infiltrations into tomato leaves of cv Purdue 135 (+ Cf-4), hypersensitive response. The class given is in vivo. Conditions: 5 μg/ml, 5 dpi. The source says: Tomato seeds were obtained from the Tomato Genetic Resource Center (TGRC) at UC Davis. WT-CfAvr4 and mutants thereof with single point mutations at selected amino acids were produced and purified from E. coli Rosetta-gami B cells as description above. […]
Take B1: the “Cf-4-mediated HR after protein infiltration” value (“Cf-4-mediated HR” for short) was “weak HR response”.

The same data set, now with this note: 10 μg/ml, 5 dpi.
As to B1, the “Cf-4-mediated HR” value is listed as “elicited an HR”.

The same data set, now with this note: both 5 μg/ml and 10 μg/ml, 5 dpi.
In the case of B1, the “Cf-4-mediated HR” value is listed as “only partially trigger an HR”.
The same measure, in the same setting: as for B2, the entry is “strong and equal in intensity HR; also recorded: strong and equally in intensity necrosis”.
Consider B3, for which the “Cf-4-mediated HR” value is recorded as “failed to elicit an HR; also recorded: do not; also recorded: did not elicit an HR”.
Still for that read-out and setting: under B4 stands “strong and equal in intensity HR; also recorded: strong and equally in intensity necrosis”.
Regarding B5, the “Cf-4-mediated HR” value is “strong and equal in intensity HR; also recorded: strong and equally in intensity necrosis”.
Regarding B6, the “Cf-4-mediated HR” value is “strong and equal in intensity HR; also recorded: strong and equally in intensity necrosis”.
With B7, the “Cf-4-mediated HR” value was “strong and equal in intensity HR; also recorded: strong and equally in intensity necrosis”.
With B8, the “Cf-4-mediated HR” value is listed as “failed to elicit an HR; also recorded: do not; also recorded: did not elicit an HR”.
The same measure, in the same setting: under B9 stands “strong and equal in intensity HR; also recorded: strong and equally in intensity necrosis”.

Tested on in the next data set: not listed separately
Briefly: Isothermal titration calorimetry (ITC) of CfAvr4 variants with chitin hexasaccharide. Conditions: ITC, (GlcNAc)6. The class given is binding. Here is the method: A stock solution of the monomer of N-acetylglucosamine was prepared by dissolving the dry powder in a buffer containing 10 mM Bis-Tris, pH 6.5, 100 mM NaCl to a concentration of 0.100 g/L using analytic techniques. Standard solution of 0, 0.010, 0.025, 0.050, 0.075 g/L were prepared by serial dilutions. Using glass test tubes and pipets, 100 μL of each standard was mixed with 300μL of concentrated sulfuric acid and vortexed for 10 sec to mix. Solutions were incubated at RT for 10 min and then placed on ice to stop the reaction. […] Analytically prepared solution of the di- and tri-saccharide scaled linearly to the calibration curve. To determine the concentration of the chitin hexasaccharide solutions used in ITC, the solutions were diluted into the dynamic range of the calibration curve (S12 Fig) and subjected to the above procedure.
All ITC experiments were performed on a TA Instruments low volume NanoITC with a 186uL reaction cell and a reference cell filled with degassed Milli-Q grade water. Reactions were run in a buffer containing 10mM Bis-Tris, pH 6.5, 100 mM NaCl. The reservoir solution was filled with protein solution and continuously stirred while Chitin hexasaccharide solutions titrated in 2.5μL aliquots for 19 injections, with an initial 1μL injection, for a total injection volume of 48.5μL. The carbohydrate solutions were made by dissolving the dry powder in buffer to a concentration of 20mM (confirmed using methods described above) and then diluted to the working concentration using the final buffer exchange flow through to match the buffers as closely as possible. The integrated heats, after correction for the heat of dilution were analyzed using the NanoAnalyze software from […]. An individual binding site model was used to fit the binding isotherm. All experiments were replicated a minimum of three times.
Turning to B3, the “increase in the Kd relative to WT-CfAvr4” value is “five”.
Turning to B8, the “increase in the Kd relative to WT-CfAvr4” value is recorded as “six”.
Turning to B9, the “increase in the Kd relative to WT-CfAvr4” value is “three”.

Still in this data set, the particulars now being: ITC, compared with WT-CfAvr4.
Consider B1, for which the “effect of the mutation on binding to (GlcNAc)6” value (shortened to “effect of the mutation”) is recorded as “abolished all detectable binding”.
Same read-out and setting: under B2 stands “did not affect the Kd substantially”.
For the molecule B4, the “effect of the mutation” value is listed as “did not affect the Kd substantially”.
For B5, the “effect of the mutation” value is recorded as “did not affect the Kd substantially; also recorded: does not have an effect on the binding thermodynamics”.
On to B6, for which the “effect of the mutation” value is listed as “did not affect the Kd substantially”.
As to B7, the “effect of the mutation” value is reported as “did not affect the Kd substantially”.

For another data set, the system named is subtilisin. Put plainly: Subtilisin treatment (resistance against proteolytic degradation). The class given is in vitro ADME. Also noted: key to Stability (Subtilisin assay): S: stable; PU: partially unstable. Conditions: 500 ng/μL subtilisin, 30 min, room temperature. As for the experimental part:
The WT-CfAvr4 and selected mutants thereof were exposed to the non-specific protease subtilisin in order to determine their resistance against proteolytic degradation. Treatments with subtilisin were made as previously described with minor modifications. Briefly, 40 μM of the E. coli-produced CfAvr4 and the selected CfAvr4 mutants were mixed with 10 mM of calcium chloride and 500 ng/μL of subtilisin (Sigma-Aldrich) in a total volume of 15 μL. Samples were incubated for 30 min at room temperature, after which period they were denatured by mixing with 10 mM PMSF and SDS-PAGE loading buffer, and heating at 98°C for 10 min. Digestion products were visualized on an SDS-PAGE after staining with Coomassie blue.
For the molecule B1, the “Stability (Subtilisin assay)” value was “PU”.
Same read-out and setting: as for B3, the entry is “PU”; as for B8, “PU”.

Still in this data set, the particulars now being: 500 ng/μl subtilisin, band of mature CfAvr4 on SDS-PAGE.
B1: the “susceptibility to proteolytic degradation by subtilisin” value (from here on “susceptibility”) is “vulnerable to proteolytic degradation; also recorded: decreased intensity of this band”.
With B3, the “susceptibility” value was “more susceptible to degradation; also recorded: almost complete disappearance of the band”.
In the case of B8, the “susceptibility” value is listed as “more susceptible to degradation; also recorded: almost complete disappearance of the band”.

In a further data set the test system is Cf-4. Briefly: Agrobacterium tumefaciens transient transformation assay (ATTA): co-expression with Cf-4 in Nicotiana benthamiana leaves. The data set is classed as in vivo. Conditions: N. benthamiana, three cell density ratios 0.5:1, 1:1, 2:1. As for the experimental part: The Agrobacterium tumefaciens transient transformation assay (ATTA) was used for the transient co-expression into leaves of Nicotiana benthamiana of Cf-4 with the WT-CfAvr4 and the mutants thereof tested in this study. Briefly, N. benthamiana plants were grown in a growth chamber with 16 h of artificial light and 70% humidity, at 25°C for 4 weeks. The true mature form of the WT-CfAvr4 (i.e. between Lys30-Gln115) and of the mutants thereof were singly cloned into the binary expression vector pICH47742 downstream of the PR1A signal sequence of Nicotiana tabacum for targeted secretion into the apoplast, and under the control of CaMV 35S promoter and NOS terminator. The tomato Cf-4 was cloned into pMOG800 as descripted before. Binary vector plasmids were transformed into A. tumefaciens strain GV3101 by electroporation. For the ATTA assay, agrobacteria transformed with pMOG800:Cf-4 was grown in 10mL LB-mannitol medium (LB medium with 10 g/L mannitol) amended with 50 μg/mL kanamycin and 25 μg/mL rifampicin, whereas agrobacteria transformed with pICH47742:WT-CfAvr4 or pICH4774:CfAvr4-mutants were grown in LB-mannitol amended with 100 μg/mL carbenicillin and 25 μg/mL rifampicin. All cultures were incubated at 28°C for 2 days, after which period they were pelleted at 2800g for 15 min, re-suspended in MMAi medium (5 g/L Murashige and Skoog basal salts, 20 g/L sucrose, 10 mM MES, and […]) at an optical cell density (A600) of 2.0, and further incubated for 2–4 h at room temperature. Agroinfiltrations were performed by mixing agrobacteria containing pMOG800:Cf-4 with agrobacteria containing pICH47742_WT-CfAvr4 or pICH47742:CfAvr4-mutants at three different ratios of optical cell densities, i.e. A6000.5:A6001.0, A6000.5:A6000.5, and A6000.5:A6000.25 of. The mixture of agrobacteria was infiltrated into the leaves of N. benthamiana plants using a 1 mL syringe and the induction of an HR in the infiltrated leaf sectors was evaluated at 5 days post-infiltrations. Control infiltrations were made using only the pMOG800:Cf-4 transformed agrobacteria and the agrobacteria containing pICH47742:CfAvr4 or the mutants thereof without mixing the two cultures, at cell densities of A6000.25, A6000.5, and A6001.0.
For B1, the “HR on transient co-expression with Cf-4” value is “strong and similar in intensity HR”.
As to B2, the “HR on transient co-expression with Cf-4” value was “strong and similar in intensity HR”.
The same measure, in the same setting: under B3 stands “strong and similar in intensity HR”; under B4, “strong and similar in intensity HR”; under B5, “strong and similar in intensity HR”.
The same measure, in the same setting: as for B6, the entry is “strong and similar in intensity HR”; as for B7, “strong and similar in intensity HR”; as for B8, “strong and similar in intensity HR”.
For the molecule B9, the “HR on transient co-expression with Cf-4” value was “strong and similar in intensity HR”.
